From patent US20230340151A1 (Pfizer, published 2023)
Like-named read-outs stand apart in the source and are kept apart here.

What was measured:
[1] = biological target: T1, Cynomolgus GUCY2C full length on 300.19 cells (cynomolgus, UniProt P25092 24-1073 (human entry)); test: IHC on cell pellets
T1 construct: also called cyno GUCY2c
T1 chain: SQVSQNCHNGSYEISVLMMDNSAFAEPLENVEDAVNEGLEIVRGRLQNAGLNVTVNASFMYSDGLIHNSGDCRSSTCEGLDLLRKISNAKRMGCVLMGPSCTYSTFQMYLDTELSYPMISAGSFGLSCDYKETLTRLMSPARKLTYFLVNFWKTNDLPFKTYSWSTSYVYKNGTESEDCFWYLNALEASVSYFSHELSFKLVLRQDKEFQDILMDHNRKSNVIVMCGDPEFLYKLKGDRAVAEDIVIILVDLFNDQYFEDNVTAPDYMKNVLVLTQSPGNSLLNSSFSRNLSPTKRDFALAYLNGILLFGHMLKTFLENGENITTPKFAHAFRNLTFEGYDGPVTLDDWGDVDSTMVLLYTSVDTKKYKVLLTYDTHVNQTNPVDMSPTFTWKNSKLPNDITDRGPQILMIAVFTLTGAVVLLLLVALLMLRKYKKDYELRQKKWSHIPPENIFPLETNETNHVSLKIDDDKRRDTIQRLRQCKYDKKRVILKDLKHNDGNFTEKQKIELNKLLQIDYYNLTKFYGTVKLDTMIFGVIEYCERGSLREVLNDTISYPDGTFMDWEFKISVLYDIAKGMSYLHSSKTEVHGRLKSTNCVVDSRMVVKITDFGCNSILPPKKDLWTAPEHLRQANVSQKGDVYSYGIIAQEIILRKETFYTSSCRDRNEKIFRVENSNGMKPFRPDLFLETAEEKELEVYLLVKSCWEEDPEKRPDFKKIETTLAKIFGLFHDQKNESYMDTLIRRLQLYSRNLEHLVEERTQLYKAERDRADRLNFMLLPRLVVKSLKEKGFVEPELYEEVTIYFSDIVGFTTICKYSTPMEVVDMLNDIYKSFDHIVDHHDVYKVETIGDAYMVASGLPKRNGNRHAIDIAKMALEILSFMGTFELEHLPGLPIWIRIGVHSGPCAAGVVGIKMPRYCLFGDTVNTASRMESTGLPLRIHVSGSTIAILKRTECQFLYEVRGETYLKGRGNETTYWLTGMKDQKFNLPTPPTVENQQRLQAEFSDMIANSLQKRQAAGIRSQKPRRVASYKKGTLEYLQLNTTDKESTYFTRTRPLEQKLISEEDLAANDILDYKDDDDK

[2] = biological target: T2, Murine GUCY2C full length on 300.19 cells (mouse, UniProt Q3UWA6 20-1072); test: IHC on cell pellets
T2 construct: also called mouse GUCY2c

[3] = biological target: T3, GUCY2C-1608; test: competition DELFIA ELISA: peptide 19 in solution competes with the plate-bound full GUCY2c extracellular domain for GUCY2C-1608
T3 construct: also called GUCY2c CD3 bispecific

[4] = biological target: T4, Human GUCY2c on tumor cells (T84, HT55) (human, UniProt P25092 24-1073); test: cell-based or functional assay
T4 sequence (P25092 24-1073 limits assumed): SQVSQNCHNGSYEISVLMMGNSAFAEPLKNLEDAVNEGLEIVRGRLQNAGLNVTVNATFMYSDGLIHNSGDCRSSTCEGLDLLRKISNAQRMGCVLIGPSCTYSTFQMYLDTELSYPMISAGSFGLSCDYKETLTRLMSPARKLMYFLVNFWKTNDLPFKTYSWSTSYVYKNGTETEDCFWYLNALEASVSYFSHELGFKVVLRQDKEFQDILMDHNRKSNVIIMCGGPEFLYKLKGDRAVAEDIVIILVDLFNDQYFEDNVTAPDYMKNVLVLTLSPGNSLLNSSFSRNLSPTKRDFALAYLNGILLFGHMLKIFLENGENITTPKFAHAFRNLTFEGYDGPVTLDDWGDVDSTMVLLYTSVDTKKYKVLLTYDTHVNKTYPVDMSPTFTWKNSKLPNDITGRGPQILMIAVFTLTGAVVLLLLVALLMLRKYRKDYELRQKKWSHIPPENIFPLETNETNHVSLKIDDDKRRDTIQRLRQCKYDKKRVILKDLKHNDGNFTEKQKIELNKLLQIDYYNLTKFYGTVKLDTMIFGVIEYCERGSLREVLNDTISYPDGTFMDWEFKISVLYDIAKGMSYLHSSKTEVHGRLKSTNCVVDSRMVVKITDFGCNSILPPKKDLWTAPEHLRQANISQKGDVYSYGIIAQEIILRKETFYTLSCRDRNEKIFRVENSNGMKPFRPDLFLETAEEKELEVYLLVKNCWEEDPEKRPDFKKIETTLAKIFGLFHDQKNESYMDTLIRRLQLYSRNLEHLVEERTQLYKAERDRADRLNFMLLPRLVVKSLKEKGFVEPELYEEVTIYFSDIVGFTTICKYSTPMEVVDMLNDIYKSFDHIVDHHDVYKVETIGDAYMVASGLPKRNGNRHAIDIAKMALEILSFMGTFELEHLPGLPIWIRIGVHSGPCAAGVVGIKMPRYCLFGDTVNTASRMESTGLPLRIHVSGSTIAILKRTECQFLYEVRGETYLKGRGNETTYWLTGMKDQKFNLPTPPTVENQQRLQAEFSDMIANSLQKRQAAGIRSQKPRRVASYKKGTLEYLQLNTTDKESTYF

[5] = biological target: T4, Human GUCY2c on tumor cells (T84, HT55); test: cell-based or functional assay; remark: listed apart in the source
[6] = biological target: T5, Human GUCY2C full length (SEQ ID NO: 224), recombinant protein (human, UniProt P25092 24-430, limits assumed); test: SPR, anti-human IgG capture, 25 C
T5 construct: also called huGUCY2C; biotinylated human GUCY2c
T5 sequence (P25092 24-430 F281L limits assumed): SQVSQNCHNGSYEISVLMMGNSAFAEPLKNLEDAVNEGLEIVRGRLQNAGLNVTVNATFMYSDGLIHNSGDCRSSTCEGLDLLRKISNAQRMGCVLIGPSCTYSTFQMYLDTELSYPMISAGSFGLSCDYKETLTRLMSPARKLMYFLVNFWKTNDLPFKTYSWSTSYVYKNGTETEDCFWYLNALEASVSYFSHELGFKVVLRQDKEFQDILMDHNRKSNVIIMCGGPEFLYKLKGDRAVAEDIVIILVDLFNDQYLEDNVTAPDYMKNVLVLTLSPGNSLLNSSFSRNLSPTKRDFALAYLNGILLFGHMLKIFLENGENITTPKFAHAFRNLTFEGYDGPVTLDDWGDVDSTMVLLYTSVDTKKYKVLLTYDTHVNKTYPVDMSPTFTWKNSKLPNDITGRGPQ

[7] = biological target: T6, Cynomolgus GUCY2C-ECD Cleaved (cynomolgus, UniProt P25092 24-430 (human entry)); test: SPR, anti-human IgG capture, 25 C
T6 construct: also called CyGUCY2C
T6 chain: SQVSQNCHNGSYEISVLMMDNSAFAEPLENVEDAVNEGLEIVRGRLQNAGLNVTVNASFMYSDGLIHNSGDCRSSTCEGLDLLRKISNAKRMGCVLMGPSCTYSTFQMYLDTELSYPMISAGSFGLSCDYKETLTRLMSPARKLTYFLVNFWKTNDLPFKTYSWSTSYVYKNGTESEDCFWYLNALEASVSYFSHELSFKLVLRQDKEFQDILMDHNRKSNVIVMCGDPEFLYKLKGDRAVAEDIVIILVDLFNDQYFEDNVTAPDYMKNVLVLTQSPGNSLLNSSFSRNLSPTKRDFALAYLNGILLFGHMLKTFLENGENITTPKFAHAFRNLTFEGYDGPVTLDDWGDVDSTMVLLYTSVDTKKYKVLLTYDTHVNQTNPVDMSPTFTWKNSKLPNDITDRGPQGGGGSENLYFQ

[8] = biological target: T7, Human CD3 epsilon-delta (human); test: SPR, anti-human IgG capture, 25 C
T7 construct: Single-chain epsilon-linker-delta with His6; also called huCD3
T7 chain: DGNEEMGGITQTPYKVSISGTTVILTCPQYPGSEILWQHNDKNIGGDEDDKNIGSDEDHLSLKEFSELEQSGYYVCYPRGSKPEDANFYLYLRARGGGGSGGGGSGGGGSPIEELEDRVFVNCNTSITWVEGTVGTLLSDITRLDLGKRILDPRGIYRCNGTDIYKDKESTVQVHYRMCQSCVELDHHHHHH

[9] = biological target: T5, Human GUCY2C full length (SEQ ID NO: …); test: SPR, GUCY2c directly immobilized, 25 C
[10] = biological target: T8, Murine GUCY2C-ECD cleaved (mouse, UniProt Q3UWA6 20-433); test: SPR, GUCY2c directly immobilized, 25 C
T8 sequence: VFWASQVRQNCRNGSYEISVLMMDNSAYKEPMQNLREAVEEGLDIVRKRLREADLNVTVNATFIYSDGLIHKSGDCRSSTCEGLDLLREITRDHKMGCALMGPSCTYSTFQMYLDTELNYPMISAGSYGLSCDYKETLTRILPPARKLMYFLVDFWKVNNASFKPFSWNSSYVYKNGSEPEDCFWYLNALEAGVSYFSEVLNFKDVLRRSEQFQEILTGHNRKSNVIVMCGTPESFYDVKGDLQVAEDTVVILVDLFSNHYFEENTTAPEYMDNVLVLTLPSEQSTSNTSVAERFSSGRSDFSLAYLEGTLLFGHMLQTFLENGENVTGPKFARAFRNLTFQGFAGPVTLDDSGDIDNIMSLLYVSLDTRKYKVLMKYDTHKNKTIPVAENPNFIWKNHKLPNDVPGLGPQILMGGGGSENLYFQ

[11] = biological target: T9, Human GUCY2C ECD-muIgG2a (human); test: huCD3-huGUCY2C sandwich ELISA (CD3 coated)
T9 construct: also called human GUCY2c ECD-mouse IgG2a Fc fusion protein; huGUCY2c-mIgG2a
T9 sequence (chain, as listed by the source limits assumed): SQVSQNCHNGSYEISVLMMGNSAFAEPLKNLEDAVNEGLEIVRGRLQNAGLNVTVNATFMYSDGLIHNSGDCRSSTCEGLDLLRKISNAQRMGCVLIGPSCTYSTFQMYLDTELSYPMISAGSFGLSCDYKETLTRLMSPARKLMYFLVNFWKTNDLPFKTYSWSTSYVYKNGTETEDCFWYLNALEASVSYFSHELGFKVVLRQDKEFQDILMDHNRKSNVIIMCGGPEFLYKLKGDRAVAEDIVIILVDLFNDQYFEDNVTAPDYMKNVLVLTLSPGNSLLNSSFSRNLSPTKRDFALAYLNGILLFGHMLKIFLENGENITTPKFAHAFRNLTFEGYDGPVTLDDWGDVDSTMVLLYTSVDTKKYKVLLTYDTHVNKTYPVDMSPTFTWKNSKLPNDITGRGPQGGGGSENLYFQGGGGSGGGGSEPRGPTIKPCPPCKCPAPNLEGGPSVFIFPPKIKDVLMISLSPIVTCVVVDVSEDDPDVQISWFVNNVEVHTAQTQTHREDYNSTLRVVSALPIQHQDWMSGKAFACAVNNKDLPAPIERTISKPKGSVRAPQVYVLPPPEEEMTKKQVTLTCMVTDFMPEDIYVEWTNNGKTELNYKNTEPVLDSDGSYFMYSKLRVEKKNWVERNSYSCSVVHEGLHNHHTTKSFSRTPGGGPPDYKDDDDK

[12] = biological target: T10, Cynomolgus CD3 epsilon-delta (cynomolgus); test: SPR, printed anti-His capture, 25 C (Table 33D)
T10 chain: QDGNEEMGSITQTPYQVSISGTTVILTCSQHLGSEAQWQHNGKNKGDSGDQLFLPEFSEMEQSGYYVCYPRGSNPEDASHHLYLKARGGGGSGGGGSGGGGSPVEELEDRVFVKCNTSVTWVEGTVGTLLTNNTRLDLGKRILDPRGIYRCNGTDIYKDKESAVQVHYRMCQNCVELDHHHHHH

[13] = biological target: T4, Human GUCY2c on tumor cells (T84, HT55); test: flow cytometry titration on T84 tumor cells (PE-A Geo Mean against Ab in nM)
[14] = biological target: T11, Human CD3 on naive human T cells (human, UniProt P07766 23-207); test: flow cytometry titration on naive human T cells (PE-A Geo Mean against Ab in nM)
T11 construct: whole, on cells; on cells it stands in the CD3/TCR complex

B1: 9H3 (antibody)
heavy: QVQLQQPGAELVKPGASVKLSCKASGYTFTSYWMHWVKQRPGQGLEWIGEIKPSNGLTNYIEKFKNKATLTVDKSATTAYMQLSSLTAEDSAVYYCTRTITTTEGYWFFDVWGAGTTVTVSSAKTTPPSVYPLAPGSAAQTNSMVTLGCLVKGYFPEPVTVTWNSGSLSSGVHTFPAVLQSDLYTLSSSVTVPSSTWPSETVTCNVAHPASSTKVDKKIVPRDCGCKPCICTVPEVSSVFIFPPKPKDVLTITLTPKVTCVVVDISKDDPEVQFSWFVDDVEVHTAQTQPREEQFNSTFRSVSELPIMHQDWLNGKEFKCRVNSAAFPAPIEKTISKTKGRPKAPQVYTIPPPKEQMAKDKVSLTCMITDFFPEDITVEWQWNGQPAENYKNTQPIMDTDGSYFVYSKLNVQKSNWEAGNTFTCSVLHEGLHNHHTEKSLSHSPGK
light: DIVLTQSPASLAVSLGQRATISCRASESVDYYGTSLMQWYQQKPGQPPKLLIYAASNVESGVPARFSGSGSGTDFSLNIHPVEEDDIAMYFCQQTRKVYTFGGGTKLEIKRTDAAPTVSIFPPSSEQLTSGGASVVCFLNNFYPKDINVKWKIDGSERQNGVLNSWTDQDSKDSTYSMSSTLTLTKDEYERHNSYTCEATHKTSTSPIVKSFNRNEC
notes: Tested as hybridoma antibody; also called GUCY2C-9H3
binding result [1]: binds | binding result [2]: binds

B2: GUCY2C_ECD Peptide 19 (peptide)
peptide: NSGDCRSSTCEGLDLLRKIS
notes: also called GUCY2c peptide 19; GUCY2c-ECD peptide number 19
IC50 (read off the curve) [3]: ~100 nM

B3: GUCY2C-0247 (bispecific antibody)
chain 1: DIQLTQSPSSLSASVGDRVTITCRASESVDYYGTSLMQWYQQKPGKPPKLLIYAASNVESGVPSRFSGSGSGTDFTLTISSLQPEDFATYYCQQTRKVYTFGQGTKLEIKGGGSGGGGEVQLVESGGGLVQPGGSLRLSCAASGFTFSDYYMTWVRQAPGKGLEWVAFIRNRARGYTSDHNPSVKGRFTISRDNAKNSLYLQMNSLRAEDTAVYYCARDRPSYYVLDYWGQGTTVTVSSGCPPCPAPEAAGAPSVFLFPPKPKDTLMISRTPEVTCVVVDVSHEDPEVKFNWYVDGVEVHNAKTKPREEQYNSTYRVVSVLTVLHQDWLNGKEYKCKVSNKALPAPIEKTISKAKGQPREPQVCTLPPSREEMTKNQVSLWCLVKGFYPSDIAVEWESNGQPENNYKTTPPVLDSDGSFFLYSKLTVDKSRWQQGNVFSCSVMHEALHNHYTQKSLSLSPG
chain 2: DIVMTQSPDSLAVSLGERATINCKSSQSLFNVRSRKNYLAWYQQKPGQPPKLLISWASTRESGVPDRFSGSGSGTDFTLTISSLQAEDVAVYYCKQSYDLFTFGSGTKLEIKGGGSGGGGEVQLVESGGGLVQPGGSLRLSCAASGYTFTSYWMHWVRQAPGKGLEWIGEIKPSNGLTNYIEKFKNRFTISVDKAKNSAYLQMNSLRAEDTAVYYCTRTITTTEGYWFFDVWGQGTLVTVSSGCPPCPAPEAAGAPSVFLFPPKPKDTLMISRTPEVTCVVVDVSHEDPEVKFNWYVDGVEVHNAKTKPREEQYNSTYRVVSVLTVLHQDWLNGKEYKCKVSNKALPAPIEKTISKAKGQPREPQVYTLPPCREEMTKNQVSLSCAVKGFYPSDIAVEWESNGQPENNYKTTPPVLDSDGSFFLVSKLTVDKSRWQQGNVFSCSVMHEALHNHYTQKSLSLSPG
T84 tumor cell EC50 (T cell cytotoxicity, E:T 5:1) [4]: 0.07 nM | T84 tumor cell EC50 (T cell cytotoxicity, E:T 5:1) [5]: 0.07 nM | Kd [6]: 4.65 nM | koff [6]: 0.000457 s⁻¹ | kon [6]: 98200 M⁻¹ s⁻¹ | Kd [7]: 4.35 nM | koff [7]: 0.000369 s⁻¹ | kon [7]: 85500 M⁻¹ s⁻¹ | Kd [8]: 3.34 nM | koff [8]: 0.000985 s⁻¹ | kon [8]: 295000 M⁻¹ s⁻¹ | Kd [9]: 3.01 nM | koff [9]: 0.000433 s⁻¹ | kon [9]: 144000 M⁻¹ s⁻¹ | Kd [10]: 12.2 nM | koff [10]: 0.00183 s⁻¹ | kon [10]: 150000 M⁻¹ s⁻¹ | EC50 [11]: 0.705 nM | Kd [12]: 3.61 nM | koff [12]: 0.001 s⁻¹ | kon [12]: 280000 M⁻¹ s⁻¹ | Kd [13]: 1.32 nM | Kd [14]: 6.18 nM
